Biological target: GST-MICAL-L2-ACT (aa 261-1009) (mouse, UniProt Q3TN34 261-1009)
Experiment: pull-down

GST-MICAL-L2-ACT (aa 261-1009), sequence (Q3TN34 261-1009): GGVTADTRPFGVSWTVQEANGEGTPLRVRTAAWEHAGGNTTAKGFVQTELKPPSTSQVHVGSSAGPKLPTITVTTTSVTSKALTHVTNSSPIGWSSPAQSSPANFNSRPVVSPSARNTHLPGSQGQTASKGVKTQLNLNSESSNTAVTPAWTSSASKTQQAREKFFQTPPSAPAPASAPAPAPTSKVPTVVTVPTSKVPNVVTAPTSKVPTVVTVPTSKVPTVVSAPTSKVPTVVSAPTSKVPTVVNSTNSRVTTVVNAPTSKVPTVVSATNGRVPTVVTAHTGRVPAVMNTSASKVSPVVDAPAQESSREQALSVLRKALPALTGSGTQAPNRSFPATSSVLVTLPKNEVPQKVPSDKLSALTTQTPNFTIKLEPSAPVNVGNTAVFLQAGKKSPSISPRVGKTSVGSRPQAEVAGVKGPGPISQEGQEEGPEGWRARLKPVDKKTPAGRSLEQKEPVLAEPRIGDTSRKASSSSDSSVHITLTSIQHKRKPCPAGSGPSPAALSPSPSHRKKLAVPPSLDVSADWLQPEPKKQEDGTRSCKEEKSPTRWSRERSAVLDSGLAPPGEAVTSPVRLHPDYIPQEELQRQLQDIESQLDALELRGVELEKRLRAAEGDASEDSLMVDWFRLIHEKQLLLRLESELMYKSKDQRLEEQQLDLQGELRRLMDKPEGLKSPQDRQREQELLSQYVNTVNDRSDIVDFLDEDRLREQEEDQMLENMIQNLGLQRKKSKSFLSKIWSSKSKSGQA

B1: GFP-Rab13 (expressed in L6-GLUT4myc muscle cells) (natural protein, UniProt P51153 1-203, looked up)
chain: MAKAYDHLFKLLLIGDSGVGKTCLIIRFAEDNFNNTYISTIGIDFKIRTVDIEGKKIKLQVWDTAGQERFKTITTAYYRGAMGIILVYDITDEKSFENIQNWMKSIKENASAGVERLLLGNKCDMEAKRKVQKEQADKLAREHGIRFFETSAKSSMNVDEAFSSLARDILLKSGGRRSGNGNKPPSTDLKTCDKKNTNKCSLG
- fold of pull-down, lysates of insulin-stimulated against basal cells: ~2 fold

Source: article PMC4694764 (Molecular Biology of the Cell, 2016)
